Laboratory results from patent publication JP2011160681A (dated 2011).

Columns and labels:
Assay in all cases: ELISA, antigen coated on the plate
Human hemoglobin = Human hemoglobin (human, UniProt P69905 2-142; P68871 2-147)
HAc peptide = HAc peptide (Influenza A virus)
HSA = HSA (UniProt P02768 25-609)
Bovine serum albumin = Bovine serum albumin (bovine, UniProt P02769 25-607)
TP41-1 peptide = biological target: T1, TP41-1 peptide (HIV-1)
T1 peptide: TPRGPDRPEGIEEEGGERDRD

Bovine serum albumin, sequence (P02769 25-607 limits assumed): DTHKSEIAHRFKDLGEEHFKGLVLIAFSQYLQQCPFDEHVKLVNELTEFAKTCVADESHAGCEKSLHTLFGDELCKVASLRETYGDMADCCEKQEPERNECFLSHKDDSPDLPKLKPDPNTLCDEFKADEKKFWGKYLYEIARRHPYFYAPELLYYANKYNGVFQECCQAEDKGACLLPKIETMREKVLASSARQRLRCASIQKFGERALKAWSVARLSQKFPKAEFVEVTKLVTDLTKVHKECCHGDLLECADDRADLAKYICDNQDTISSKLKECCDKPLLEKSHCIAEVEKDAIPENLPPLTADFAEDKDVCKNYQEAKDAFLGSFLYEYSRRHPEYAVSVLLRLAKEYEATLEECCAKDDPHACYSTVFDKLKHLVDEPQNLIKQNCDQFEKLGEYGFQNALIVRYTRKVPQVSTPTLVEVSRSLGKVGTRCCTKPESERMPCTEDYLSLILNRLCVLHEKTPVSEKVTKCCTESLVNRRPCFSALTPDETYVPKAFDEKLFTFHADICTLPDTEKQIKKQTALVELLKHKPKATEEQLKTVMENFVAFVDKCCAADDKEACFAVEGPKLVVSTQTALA
HSA, sequence (P02768 25-609): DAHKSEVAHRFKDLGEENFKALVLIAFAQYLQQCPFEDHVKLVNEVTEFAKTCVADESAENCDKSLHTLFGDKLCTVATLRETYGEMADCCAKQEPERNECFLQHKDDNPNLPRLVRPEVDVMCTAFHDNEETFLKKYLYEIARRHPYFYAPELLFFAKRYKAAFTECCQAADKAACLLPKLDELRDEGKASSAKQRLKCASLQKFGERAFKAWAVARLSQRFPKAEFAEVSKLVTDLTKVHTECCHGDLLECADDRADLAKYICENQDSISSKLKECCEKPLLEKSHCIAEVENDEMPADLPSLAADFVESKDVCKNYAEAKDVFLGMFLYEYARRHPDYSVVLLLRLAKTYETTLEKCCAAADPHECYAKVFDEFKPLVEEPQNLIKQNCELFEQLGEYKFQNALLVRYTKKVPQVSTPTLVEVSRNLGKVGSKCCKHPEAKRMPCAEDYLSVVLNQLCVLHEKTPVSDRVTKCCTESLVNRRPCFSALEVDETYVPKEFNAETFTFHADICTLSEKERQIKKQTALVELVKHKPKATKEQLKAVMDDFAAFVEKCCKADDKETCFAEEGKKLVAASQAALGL
Human hemoglobin, sequence (P69905 2-142 limits assumed, chain 1 of 2): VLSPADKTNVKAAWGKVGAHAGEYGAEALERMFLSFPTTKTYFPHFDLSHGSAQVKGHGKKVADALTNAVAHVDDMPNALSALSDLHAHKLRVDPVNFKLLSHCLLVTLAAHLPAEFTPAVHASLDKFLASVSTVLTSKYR
Human hemoglobin, sequence (P68871 2-147 limits assumed, chain 2 of 2): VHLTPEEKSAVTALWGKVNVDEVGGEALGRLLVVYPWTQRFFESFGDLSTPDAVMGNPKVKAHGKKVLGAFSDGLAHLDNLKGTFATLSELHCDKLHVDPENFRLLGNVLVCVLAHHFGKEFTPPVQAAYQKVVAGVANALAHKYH

B1: InfA-15 monoclonal antibody (antibody, V domains shown)
VH: QVQLKESGPGLVAPSQSLSITCTVSGFSLTKSGLHWVRQPPGKGLEWLGVIWAGGSTDYNSALTSRLTITKDNSKSQIFFRLNSLQTADTAMYYCVRSTFLYAMDFWGQGTSVTVS
VL: DAVMTQTPLSLPVSLGDQASISCRSSPSLEHSNGNTYLNWYLQKPGQSPQLLIYRVSNRFSGVPDRFSGSGSGTDFTLKISRVEAEDLGVYFCLQVTHVPPTFGGGTKLEIKR
Question: Does B1 bind (Human hemoglobin)?
Answer: no binding (tested: 4 μg/ml (coated antigen))

Question: Does B1 bind (HAc peptide)?
Answer: no binding (tested: 4 μg/ml (coated antigen))

Question: Does B1 bind (HSA)?
Answer: no binding (tested: 4 μg/ml (coated antigen))

Question: Does B1 bind (Bovine serum albumin)?
Answer: no binding (tested: 4 μg/ml (coated antigen))

Question: Does B1 bind (TP41-1 peptide)?
Answer: no binding (tested: 4 μg/ml (coated antigen))
